Test results from patent US20230242616A1, “CHEMOKINE-SELECTIVE CXCR4 ECTODOMAIN-DERIVED (POLY)PEPTIDE” (Ludwig-Maximilians-Universität München, priority 2020, published 2023).

Key:
[1] = biological target: msR4M-L1 (CXCR4-ECL1[97-110]-6-Ahx-12-Ado-ECL2[182-196]) (human); assay: fluorescence spectroscopic titration, self-assembly; Fluos-msR4M-L1 titrated with unlabelled msR4M-L1
CXCL12 (human) = CXCL12 (human) (UniProt P48061); assay: fluorescence spectroscopic titration, apparent KD; Fluos-labelled peptide (5 nM) titrated with CXCL12
Chain of CXCL12 (human) (P48061 22-89 limits assumed): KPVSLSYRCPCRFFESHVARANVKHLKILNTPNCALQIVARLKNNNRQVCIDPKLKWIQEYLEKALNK

[2] = biological target: human macrophage migration-inhibitory factor (MIF) (human) (UniProt P14174); assay: fluorescence spectroscopic titration, apparent Kd; Alexa-488-MIF titrated with ngm
Chain of human macrophage migration-inhibitory factor (MIF) (human) (P14174 2-115 limits assumed): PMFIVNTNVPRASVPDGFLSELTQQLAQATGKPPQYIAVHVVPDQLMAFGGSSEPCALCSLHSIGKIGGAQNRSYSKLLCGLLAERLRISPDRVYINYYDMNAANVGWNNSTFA

[3] = biological target: human macrophage migration-inhibitory factor (MIF) (human) (UniProt P14174); assay: fluorescence spectroscopic titration, apparent Kd; Fluos-ngm titrated with MIF
[4] = biological target: human macrophage migration-inhibitory factor (MIF) (human) (UniProt P14174); assay: cell-based or functional assay
[5] = biological target: human macrophage migration-inhibitory factor (MIF) (human) (UniProt P14174); assay: fluorescence spectroscopic titration
[6] = biological target: human macrophage migration-inhibitory factor (MIF) (human) (UniProt P14174); assay: fluorescence spectroscopic titration of Alexa-MIF with increasing ngm-L5 [panel D]

Substance | Kd [1] | Kd (CXCL12 (human)) | Kd [2] | Kd [3] | Atherogenic inhibitory activity (Dil-LDL uptake) (% of full-length msR4M-L1) [4] | Kd [5] | EC50 (read off the curve) [6] | IC50 of inhibition of MIF-triggered Dil-oxLDL uptake (foam cell assay) [4]
msR4M-L1 (CXCR4-ECL1[97-110]-6-Ahx-12-Ado-ECL2[182-196]) (designed binder) | 0.142 µM | > 5 µM |  |  |  |  |  | 
msR4M-L3 ([ECL1(102-110)]-6 Ahx-12 Ado-[ECL2(187-195)]) (designed binder) |  |  | 0.0117 µM | 0.0444 µM | 80 | 0.014 µM |  | 
msR4M-L4 ([ECL1(102-110)]-8 Aoc-[ECL2(187-195)]) (designed binder) |  |  | 0.0432 µM | 0.0119 µM | 80 | 0.012 µM |  | 
msR4M-L5 ([ECL1(102-110)]-O1pen-O1pen-[ECL2(187-195)]) (designed binder) |  |  | 0.0418 µM | 0.0143 µM | 30 | 0.014 µM | 0.04 µM | 0.0697 µM
